These results are taken from publication PMC3735830 (Nature structural & molecular biology, 2013).

The target of assay [1] is T1, Orc1 (S. cerevisiae, UniProt P54784 1-914).
T1 sequence: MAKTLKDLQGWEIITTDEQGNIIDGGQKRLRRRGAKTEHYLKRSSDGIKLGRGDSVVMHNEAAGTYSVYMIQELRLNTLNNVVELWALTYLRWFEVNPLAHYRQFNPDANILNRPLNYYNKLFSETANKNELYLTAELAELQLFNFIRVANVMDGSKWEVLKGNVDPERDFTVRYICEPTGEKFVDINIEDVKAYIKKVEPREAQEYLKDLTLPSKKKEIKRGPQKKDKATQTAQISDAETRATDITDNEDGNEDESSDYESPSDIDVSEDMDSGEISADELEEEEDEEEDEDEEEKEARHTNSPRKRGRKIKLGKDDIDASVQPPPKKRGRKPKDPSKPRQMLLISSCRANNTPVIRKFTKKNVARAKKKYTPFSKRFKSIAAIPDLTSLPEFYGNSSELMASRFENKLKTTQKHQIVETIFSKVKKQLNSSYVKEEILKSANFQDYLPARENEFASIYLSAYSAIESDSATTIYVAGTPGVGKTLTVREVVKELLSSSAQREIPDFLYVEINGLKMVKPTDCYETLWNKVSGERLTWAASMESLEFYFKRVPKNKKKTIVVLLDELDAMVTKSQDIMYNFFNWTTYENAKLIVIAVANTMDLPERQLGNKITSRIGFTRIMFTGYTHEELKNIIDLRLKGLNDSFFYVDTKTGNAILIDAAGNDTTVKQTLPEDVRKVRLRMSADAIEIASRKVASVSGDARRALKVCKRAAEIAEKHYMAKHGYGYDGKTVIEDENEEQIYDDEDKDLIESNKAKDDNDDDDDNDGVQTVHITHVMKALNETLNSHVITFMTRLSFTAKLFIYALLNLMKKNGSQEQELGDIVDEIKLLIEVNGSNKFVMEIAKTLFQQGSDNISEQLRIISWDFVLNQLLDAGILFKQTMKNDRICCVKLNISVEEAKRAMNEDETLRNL
Description: cryo-EM structure.

In assay [2] the target is T2, Mcm2 (S. cerevisiae, UniProt P29469 1-868).
T2 sequence: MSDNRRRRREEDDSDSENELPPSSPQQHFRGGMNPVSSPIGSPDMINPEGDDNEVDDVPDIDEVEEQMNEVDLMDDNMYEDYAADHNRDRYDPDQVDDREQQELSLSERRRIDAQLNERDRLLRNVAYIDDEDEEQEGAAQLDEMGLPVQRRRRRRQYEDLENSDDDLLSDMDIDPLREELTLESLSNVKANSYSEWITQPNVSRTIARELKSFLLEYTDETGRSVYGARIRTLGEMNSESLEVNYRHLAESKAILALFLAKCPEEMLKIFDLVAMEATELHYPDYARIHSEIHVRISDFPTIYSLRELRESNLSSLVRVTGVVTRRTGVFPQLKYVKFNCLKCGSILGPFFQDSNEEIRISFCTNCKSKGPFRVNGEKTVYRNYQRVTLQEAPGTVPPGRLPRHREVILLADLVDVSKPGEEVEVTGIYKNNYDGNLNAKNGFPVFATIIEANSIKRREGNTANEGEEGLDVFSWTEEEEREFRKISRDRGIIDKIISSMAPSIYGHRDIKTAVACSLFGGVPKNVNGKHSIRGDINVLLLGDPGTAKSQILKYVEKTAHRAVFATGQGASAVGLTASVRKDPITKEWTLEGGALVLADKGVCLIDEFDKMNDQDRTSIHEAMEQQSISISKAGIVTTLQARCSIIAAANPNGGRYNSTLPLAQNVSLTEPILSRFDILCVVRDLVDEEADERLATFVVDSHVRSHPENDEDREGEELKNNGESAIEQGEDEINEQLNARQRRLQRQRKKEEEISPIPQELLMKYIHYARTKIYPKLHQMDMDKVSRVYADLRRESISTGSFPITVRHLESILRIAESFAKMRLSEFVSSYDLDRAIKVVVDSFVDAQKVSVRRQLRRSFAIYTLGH
The assay is described as follows: co-IP.

Assay [3] deals with Mcm3 (S. cerevisiae, UniProt P24279 1-971). Description: cryo-EM structure.
Assay [4] has as its target T3, Mcm4 (S. cerevisiae, UniProt P30665 1-933).
T3 sequence: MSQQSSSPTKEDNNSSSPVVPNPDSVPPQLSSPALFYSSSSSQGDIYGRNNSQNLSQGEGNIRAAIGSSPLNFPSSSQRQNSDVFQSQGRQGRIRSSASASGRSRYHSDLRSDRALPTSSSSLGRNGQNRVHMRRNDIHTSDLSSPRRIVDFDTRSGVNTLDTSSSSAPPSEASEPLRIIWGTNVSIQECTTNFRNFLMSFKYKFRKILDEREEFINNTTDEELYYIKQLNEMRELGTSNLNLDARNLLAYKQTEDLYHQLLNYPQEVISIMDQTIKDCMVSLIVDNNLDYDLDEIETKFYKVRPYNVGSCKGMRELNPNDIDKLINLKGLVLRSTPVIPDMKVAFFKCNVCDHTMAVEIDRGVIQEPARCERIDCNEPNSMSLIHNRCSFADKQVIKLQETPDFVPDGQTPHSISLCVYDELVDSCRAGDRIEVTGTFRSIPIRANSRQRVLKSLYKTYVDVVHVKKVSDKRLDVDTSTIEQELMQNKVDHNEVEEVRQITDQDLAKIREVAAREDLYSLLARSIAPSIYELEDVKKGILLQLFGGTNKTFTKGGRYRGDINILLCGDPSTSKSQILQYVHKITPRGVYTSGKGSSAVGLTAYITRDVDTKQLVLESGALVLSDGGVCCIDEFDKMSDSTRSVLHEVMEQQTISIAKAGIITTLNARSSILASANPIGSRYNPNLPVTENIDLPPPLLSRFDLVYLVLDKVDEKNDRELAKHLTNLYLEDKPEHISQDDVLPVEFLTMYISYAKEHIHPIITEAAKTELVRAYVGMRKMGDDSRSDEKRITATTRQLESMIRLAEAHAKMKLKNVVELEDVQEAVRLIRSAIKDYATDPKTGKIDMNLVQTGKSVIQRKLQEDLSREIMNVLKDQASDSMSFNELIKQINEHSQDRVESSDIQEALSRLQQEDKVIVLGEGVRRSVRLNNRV
The assay is described as follows: cryo-EM structure.

The target of assay [5] is T4, Orc3 (S. cerevisiae, UniProt P54790 1-616).
T4 sequence: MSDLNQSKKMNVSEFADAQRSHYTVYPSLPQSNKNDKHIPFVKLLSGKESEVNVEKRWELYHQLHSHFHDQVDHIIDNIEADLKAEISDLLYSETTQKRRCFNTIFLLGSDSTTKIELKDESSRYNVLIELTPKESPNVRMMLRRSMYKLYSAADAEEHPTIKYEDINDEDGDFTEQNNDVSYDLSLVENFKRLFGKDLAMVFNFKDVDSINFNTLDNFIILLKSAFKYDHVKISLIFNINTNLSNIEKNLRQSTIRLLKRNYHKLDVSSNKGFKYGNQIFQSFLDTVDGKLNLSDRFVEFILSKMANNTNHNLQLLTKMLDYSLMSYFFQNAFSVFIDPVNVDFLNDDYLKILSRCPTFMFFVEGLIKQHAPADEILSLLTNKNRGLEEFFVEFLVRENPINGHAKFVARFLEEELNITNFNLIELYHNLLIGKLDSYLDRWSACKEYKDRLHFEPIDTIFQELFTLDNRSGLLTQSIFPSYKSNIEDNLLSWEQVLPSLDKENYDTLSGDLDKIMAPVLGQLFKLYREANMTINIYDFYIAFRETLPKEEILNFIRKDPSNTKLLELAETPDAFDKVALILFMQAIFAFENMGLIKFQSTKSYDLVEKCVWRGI
Description: cryo-EM structure.

In assay [6] the target is Mcm6 (S. cerevisiae, UniProt P53091 1-1017). The assay is described as follows: cryo-EM structure.
Chain of Mcm6 (P53091 whole entry): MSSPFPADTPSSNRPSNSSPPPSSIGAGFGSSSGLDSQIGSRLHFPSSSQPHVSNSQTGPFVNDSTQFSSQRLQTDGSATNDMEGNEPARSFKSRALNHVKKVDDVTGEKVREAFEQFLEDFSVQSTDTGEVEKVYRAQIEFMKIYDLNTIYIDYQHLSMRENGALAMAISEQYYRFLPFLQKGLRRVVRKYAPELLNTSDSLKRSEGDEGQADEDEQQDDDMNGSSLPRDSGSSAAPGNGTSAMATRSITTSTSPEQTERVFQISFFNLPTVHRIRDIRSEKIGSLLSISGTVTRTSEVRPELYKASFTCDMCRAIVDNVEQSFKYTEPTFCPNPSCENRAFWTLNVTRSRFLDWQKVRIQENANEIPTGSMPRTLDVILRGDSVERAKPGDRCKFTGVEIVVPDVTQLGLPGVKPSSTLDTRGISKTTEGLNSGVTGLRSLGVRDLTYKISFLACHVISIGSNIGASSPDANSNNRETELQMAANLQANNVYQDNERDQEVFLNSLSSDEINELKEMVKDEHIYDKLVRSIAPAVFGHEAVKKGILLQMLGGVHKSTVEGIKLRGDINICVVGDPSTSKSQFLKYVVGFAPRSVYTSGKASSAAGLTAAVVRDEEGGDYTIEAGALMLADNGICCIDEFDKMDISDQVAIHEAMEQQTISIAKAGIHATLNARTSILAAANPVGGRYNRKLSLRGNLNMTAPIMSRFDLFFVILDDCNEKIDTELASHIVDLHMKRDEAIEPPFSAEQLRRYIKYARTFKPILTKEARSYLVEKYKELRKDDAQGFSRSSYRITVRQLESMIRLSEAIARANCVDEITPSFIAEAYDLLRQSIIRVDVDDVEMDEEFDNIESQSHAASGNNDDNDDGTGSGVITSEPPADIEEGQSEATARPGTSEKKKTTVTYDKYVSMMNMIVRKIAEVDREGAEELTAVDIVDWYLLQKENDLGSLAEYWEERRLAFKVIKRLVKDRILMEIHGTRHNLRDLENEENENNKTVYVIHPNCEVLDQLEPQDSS

Chain of Mcm3 (P24279 whole entry): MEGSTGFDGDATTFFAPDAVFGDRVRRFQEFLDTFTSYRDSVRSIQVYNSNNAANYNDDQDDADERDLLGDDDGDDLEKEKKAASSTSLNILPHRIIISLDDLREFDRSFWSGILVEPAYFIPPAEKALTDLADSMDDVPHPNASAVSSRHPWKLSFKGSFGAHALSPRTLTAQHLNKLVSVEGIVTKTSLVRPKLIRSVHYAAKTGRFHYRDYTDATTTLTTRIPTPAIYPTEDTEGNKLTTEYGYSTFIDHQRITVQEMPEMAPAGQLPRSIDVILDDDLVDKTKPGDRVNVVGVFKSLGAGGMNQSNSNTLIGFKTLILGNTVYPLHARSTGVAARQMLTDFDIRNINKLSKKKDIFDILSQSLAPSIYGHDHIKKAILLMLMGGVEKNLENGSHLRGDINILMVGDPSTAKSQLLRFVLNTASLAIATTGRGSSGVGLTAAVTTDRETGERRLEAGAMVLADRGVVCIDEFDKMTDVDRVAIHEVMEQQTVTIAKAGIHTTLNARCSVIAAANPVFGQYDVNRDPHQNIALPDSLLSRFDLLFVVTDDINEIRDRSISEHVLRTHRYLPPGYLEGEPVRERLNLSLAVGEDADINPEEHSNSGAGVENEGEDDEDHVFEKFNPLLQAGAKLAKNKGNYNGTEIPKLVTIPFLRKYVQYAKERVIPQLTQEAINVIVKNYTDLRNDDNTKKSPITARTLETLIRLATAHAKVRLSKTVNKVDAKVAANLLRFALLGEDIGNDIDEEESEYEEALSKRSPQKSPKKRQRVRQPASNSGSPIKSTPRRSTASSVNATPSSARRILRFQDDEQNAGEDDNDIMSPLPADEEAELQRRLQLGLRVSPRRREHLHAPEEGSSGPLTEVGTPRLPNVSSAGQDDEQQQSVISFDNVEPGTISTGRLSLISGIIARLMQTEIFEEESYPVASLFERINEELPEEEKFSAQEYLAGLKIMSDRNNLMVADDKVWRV

B1: Orc4 (natural protein)
chain: MTISEARLSPQVNLLPIKRHSNEEVEETAAILKKRTIDNEKCKDSDPGFGSLQRRLLQQLYGTLPTDEKIIFTYLQDCQQEIDRIIKQSIIQKESHSVILVGPRQSYKTYLLDYELSLLQQSYKEQFITIRLNGFIHSEQTAINGIATQLEQQLQKIHGSEEKIDDTSLETISSGSLTEVFEKILLLLDSTTKTRNEDSGEVDRESITKITVVFIFDEIDTFAGPVRQTLLYNLFDMVEHSRVPVCIFGCTTKLNILEYLEKRVKSRFSQRVIYMPQIQNLDDMVDAVRNLLTVRSEISPWVSQWNETLEKELSDPRSNLNRHIRMNFETFRSLPTLKNSIIPLVATSKNFGSLCTAIKSCSFLDIYNKNQLSNNLTGRLQSLSDLELAILISAARVALRAKDGSFNFNLAYAEYEKMIKAINSRIPTVAPTTNVGTGQSTFSIDNTIKLWLKKDVKNVWENLVQLDFFTEKSAVGLRDNATAAFYASNYQFQGTMIPFDLRSYQMQIILQELRRIIPKSNMYYSWTQL
As to B1, in assay [1], the binding result is listed as “binds”.

B2: Mcm7 (natural protein)
chain: MSAALPSIQLPVDYNNLFNEITDFLVTFKQDTLSSDATRNENEDENLDAENIEQHLLEKGPKYMAMLQKVANRELNSVIIDLDDILQYQNEKFLQGTQADDLVSAIQQNANHFTELFCRAIDNNMPLPTKEIDYKDDVLDVILNQRRLRNERMLSDRTNEIRSENLMDTTMDPPSSMNDALREVVEDETELFPPNLTRRYFLYFKPLSQNCARRYRKKAISSKPLSVRQIKGDFLGQLITVRGIITRVSDVKPAVEVIAYTCDQCGYEVFQEVNSRTFTPLSECTSEECSQNQTKGQLFMSTRASKFSAFQECKIQELSQQVPVGHIPRSLNIHVNGTLVRSLSPGDIVDVTGIFLPAPYTGFKALKAGLLTETYLEAQFVRQHKKKFASFSLTSDVEERVMELITSGDVYNRLAKSIAPEIYGNLDVKKALLLLLVGGVDKRVGDGMKIRGDINVCLMGDPGVAKSQLLKAICKISPRGVYTTGKGSSGVGLTAAVMKDPVTDEMILEGGALVLADNGICCIDEFDKMDESDRTAIHEVMEQQTISISKAGINTTLNARTSILAAANPLYGRYNPRLSPLDNINLPAALLSRFDILFLMLDIPSRDDDEKLAEHVTYVHMHNKQPDLDFTPVEPSKMREYIAYAKTKRPVMSEAVNDYVVQAYIRLRQDSKREMDSKFSFGQATPRTLLGIIRLSQALAKLRLADMVDIDDVEEALRLVRVSKESLYQETNKSKEDESPTTKIFTIIKKMLQETGKNTLSYENIVKTVRLRGFTMLQLSNCIQEYSYLNVWHLINEGNTLKFVDDGTMDTDQEDSLVSTPKLAPQTTASANVSAQDSDIDLQDA
Regarding B2, the binding result in assay [2], in assay [3] and in assay [4] was “binds” throughout.

B3: Cdc6 (natural protein)
chain: MSAIPITPTKRIRRNLFDDAPATPPRPLKRKKLQFTDVTPESSPEKLQFGSQSIFLRTKALLQKSSELVNLNSSDGALPARTAEYEQVMNFLAKAISEHRSDSLYITGPPGTGKTAQLDMIIRQKFQSLPLSLSTPRSKDVLRHTNPNLQNLSWFELPDGRLESVAVTSINCISLGEPSSIFQKIFDSFQDLNGPTLQIKNMQHLQKFLEPYHKKTTFVVVLDEMDRLLHANTSETQSVRTILELFLLAKLPTVSFVLIGMANSLDMKDRFLSRLNLDRGLLPQTIVFQPYTAEQMYEIVIQKMSSLPTIIFQPMAIKFAAKKCAGNTGDLRKLFDVLRGSIEIYELEKRFLLSPTRGSLNSAQVPLTPTTSPVKKSYPEPQGKIGLNYIAKVFSKFVNNNSTRTRIAKLNIQQKLILCTIIQSLKLNSDATIDESFDHYIKAITKTDTLAPLQRNEFLEICTILETCGLVSIKKTKCKGKTKRFVDKIDVDLDMREFYDEMTKISILKPFLH
Consider B3, for which the binding result in assay [1] and in assay [5] was “binds” each time.

B4: Cdt1 (natural protein)
chain: MSGTANSRRKEVLRVPVIDLNRVSDEEQLLPVVRAILLQHDTFLLKNYANKAVLDALLAGLTTKDLPDTSQGFDANFTGTLPLEDDVWLEQYIFDTDPQLRFDRKCRNESLCSIYSRLFKLGLFFAQLCVKSVVSSAELQDCISTSHYATKLTRYFNDNGSTHDGADAGATVLPTGDDFQYLFERDYVTFLPTGVLTIFPCAKAIRYKPSTMATTDNSWVSIDEPDCLLFHTGTLLARWSQGMHTTSPLQIDPRANIVSLTIWPPLTTPISSKGEGTIANHLLEQQIKAFPKVAQQYYPRELSILRLQDAMKFVKELFTVCETVLSLNALSRSTGVPPELHVLLPQISSMMKRKIVQDDILKLLTIWSDAYVVELNSRGELTMNLPKRDNLTTLTNKSRTLAFVERAESWYQQVIASKDEIMTDVPAFKINKRRSSSNSKTVLSSKVQTKSSNANALNNSRYLANSKENFMYKEKMPDSQANLMDRLRERERRSAALLSQRQKRYQQFLAMKMTQVFDILFSLTRGQPYTETYLSSLIVDSLQDSNNPIGTKEASEILAGLQGILPMDISVHQVDGGLKVYRWNSLDKNRFSKLLQIHKSKQQD
Turning to B4, the binding result in assay [6] is reported as “binds”.
